Blank lines part the entries; values can stand above or below the substance they belong to.
Experiments:
[1] = biological target: F-actin of the thin filaments in ghost muscle fibres (rabbit psoas) (rabbit (endogenous in m. psoas fibres)) (UniProt P68135); assay: incorporation into ghost muscle fibres, washing, SDS-PAGE; ghost fibres with thin filaments reconstructed with Tpm and TN, decorated with S1; presence of ADP (2.5 mM ADP, 3 mM MgCl2)
[2] = biological target: F-actin of the thin filaments in ghost muscle fibres (rabbit psoas) (rabbit (endogenous in m. psoas fibres)) (UniProt P68135); assay: incorporation into ghost muscle fibres, washing, SDS-PAGE; ghost fibres with thin filaments reconstructed with Tpm and TN, decorated with S1; absence of nucleotide
[3] = biological target: F-actin of the thin filaments in ghost muscle fibres (rabbit psoas) (rabbit (endogenous in m. psoas fibres)) (UniProt P68135); assay: incorporation into ghost muscle fibres, washing, SDS-PAGE; ghost fibres with thin filaments reconstructed with Tpm and TN, decorated with S1; presence of ATP (5 mM ATP, 18 mM MgCl2, creatine phosphate and creatine kinase)
[4] = biological target: F-actin of the thin filaments in ghost muscle fibres (rabbit psoas) (rabbit (endogenous in m. psoas fibres)) (UniProt P68135); assay: incorporation into ghost muscle fibres, washing, SDS-PAGE; ghost fibres with thin filaments reconstructed with Tpm and TN, decorated with S1; presence of AMPPNP (16 mM AMPPNP, 8 mM MgCl2)
[5] = biological target: F-actin of the thin filaments in ghost muscle fibres (rabbit psoas) (rabbit (endogenous in m. psoas fibres)) (UniProt P68135)
[6] = biological target: F-actin of the thin filaments in ghost muscle fibres (rabbit psoas) (rabbit (endogenous in m. psoas fibres)) (UniProt P68135); assay: fluorescence intensity of the labelled protein in ghost muscle fibres (polarized fluorimeter); AF-Tpm-TN incorporated into the actin filaments of ghost fibres; Isum of the four polarized intensity components, n = 25; excitation 436 ± 5 nm, emission 500-600 nm
[7] = biological target: F-actin of the thin filaments in ghost muscle fibres (rabbit psoas) (rabbit (endogenous in m. psoas fibres)) (UniProt P68135); assay: incorporation into ghost muscle fibres, washing, SDS-PAGE with densitometry; single rabbit psoas ghost fibres incubated with Tpm and TN in 50 mM KCl, 3 mM MgCl2, 1 mM DTT, 6.7 mM K, Na phosphate buffer, pH 7.0; unbound Tpm and TN washed out for 15 min; 8-10 fibres per gel lane, 12% SDS-PAGE, ImageJ

Sequence of myosin subfragment-1 from rabbit fast skeletal muscle myosin (domain or fragment) (Q28641 whole entry, the tested form may be a part): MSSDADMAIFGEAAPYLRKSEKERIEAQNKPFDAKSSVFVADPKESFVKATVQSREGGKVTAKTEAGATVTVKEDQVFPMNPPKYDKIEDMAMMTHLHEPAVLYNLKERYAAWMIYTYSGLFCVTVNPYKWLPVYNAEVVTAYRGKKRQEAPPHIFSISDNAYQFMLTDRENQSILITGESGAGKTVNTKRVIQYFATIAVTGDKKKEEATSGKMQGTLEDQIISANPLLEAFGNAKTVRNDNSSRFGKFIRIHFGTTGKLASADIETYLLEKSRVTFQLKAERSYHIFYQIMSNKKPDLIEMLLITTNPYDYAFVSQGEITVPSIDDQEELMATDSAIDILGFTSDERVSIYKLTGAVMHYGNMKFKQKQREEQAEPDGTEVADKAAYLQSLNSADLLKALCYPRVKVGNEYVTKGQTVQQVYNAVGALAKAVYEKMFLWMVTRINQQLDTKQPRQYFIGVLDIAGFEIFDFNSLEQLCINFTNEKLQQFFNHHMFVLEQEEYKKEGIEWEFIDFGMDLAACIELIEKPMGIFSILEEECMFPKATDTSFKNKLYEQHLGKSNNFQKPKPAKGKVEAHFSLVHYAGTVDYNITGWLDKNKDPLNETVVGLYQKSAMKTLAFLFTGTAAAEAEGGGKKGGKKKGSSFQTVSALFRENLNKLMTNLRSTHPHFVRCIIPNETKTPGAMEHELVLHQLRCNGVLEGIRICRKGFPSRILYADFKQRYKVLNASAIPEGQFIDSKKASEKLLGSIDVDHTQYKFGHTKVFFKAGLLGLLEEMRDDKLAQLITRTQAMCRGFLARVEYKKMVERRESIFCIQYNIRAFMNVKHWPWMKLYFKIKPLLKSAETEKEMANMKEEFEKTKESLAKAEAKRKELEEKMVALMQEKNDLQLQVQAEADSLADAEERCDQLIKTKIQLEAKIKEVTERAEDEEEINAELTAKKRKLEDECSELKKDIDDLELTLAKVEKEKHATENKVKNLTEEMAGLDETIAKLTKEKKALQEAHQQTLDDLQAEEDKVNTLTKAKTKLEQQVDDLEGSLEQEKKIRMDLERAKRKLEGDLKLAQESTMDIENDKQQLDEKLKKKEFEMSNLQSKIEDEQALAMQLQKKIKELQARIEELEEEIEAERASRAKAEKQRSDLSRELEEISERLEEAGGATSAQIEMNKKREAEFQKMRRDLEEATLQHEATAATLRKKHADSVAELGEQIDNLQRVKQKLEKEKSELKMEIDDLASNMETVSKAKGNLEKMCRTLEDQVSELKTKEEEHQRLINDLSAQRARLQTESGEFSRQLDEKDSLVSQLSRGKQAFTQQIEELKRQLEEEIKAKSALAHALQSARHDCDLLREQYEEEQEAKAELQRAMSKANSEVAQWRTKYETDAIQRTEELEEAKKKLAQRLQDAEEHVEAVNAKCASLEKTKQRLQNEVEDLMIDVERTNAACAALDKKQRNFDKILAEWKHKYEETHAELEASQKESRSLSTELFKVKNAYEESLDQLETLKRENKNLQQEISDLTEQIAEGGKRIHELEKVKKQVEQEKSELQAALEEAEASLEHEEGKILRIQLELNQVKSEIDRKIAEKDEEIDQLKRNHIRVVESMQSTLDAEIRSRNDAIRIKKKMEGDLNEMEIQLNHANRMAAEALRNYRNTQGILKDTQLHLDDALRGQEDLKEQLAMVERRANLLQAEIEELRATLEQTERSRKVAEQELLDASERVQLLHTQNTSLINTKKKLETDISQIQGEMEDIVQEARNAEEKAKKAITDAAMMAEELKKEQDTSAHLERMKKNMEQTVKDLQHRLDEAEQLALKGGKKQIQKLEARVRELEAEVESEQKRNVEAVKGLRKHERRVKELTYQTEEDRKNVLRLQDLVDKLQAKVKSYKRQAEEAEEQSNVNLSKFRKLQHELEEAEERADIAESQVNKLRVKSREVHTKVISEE

molar ratio of S1 to actin (1:x, value is x) (mol actin per mol S1) [1]: 5
molar ratio of S1 to actin (1:x, value is x) (mol actin per mol S1) [2]: 5
molar ratio of S1 to actin (1:x, value is x) (mol actin per mol S1) [3]: 14
molar ratio of S1 to actin (1:x, value is x) (mol actin per mol S1) [4]: 8
ΦE of the polarized fluorescence of AEDANS-S1 in ghost fibres containing ΔE139Tpm against fibres containing WTTpm; TN, high Ca2+, no nucleotide [5]: 0.4 °
Substance: myosin subfragment-1 from rabbit fast skeletal muscle myosin (domain or fragment)

fluorescence intensity Isum of the bound labelled Tpm [6]: 266
Substance: recombinant tropomyosin Tpm2.2 with the E139 deletion labelled with 5-IAF (natural protein)

amount bound, percent of the amount of WTTpm [7]: 85%
Substance: recombinant tropomyosin Tpm2.2 with the E139 deletion, ββ-homodimer (natural protein)

fluorescence intensity Isum of the bound labelled Tpm [6]: 236
Substance: recombinant wild-type tropomyosin Tpm2.2 labelled with 5-IAF (natural protein)

Reference: paper PMC5711931
